Molecular target: human TSH receptor stably expressed on Chinese Hamster Ovary (CHO) cells (CHO-hTSHR clone JP09 and clone JP26) (human) (UniProt P16473)
Experiment: cell-based or functional assay

Substance: hTSH α4K/TSH-β-CTEP (heterodimer of mutant α4K subunit and human TSH-β subunit fused to the CTEP of hCG) (from UniProt P0DN86 134-165) (ligand)
- Vmax (cyclic AMP production), fold increase compared to wild type TSH: 1.5 fold
- in vitro activity, fold over that of the α4K/TSH-β wild type heterodimer: 3 to 4 fold
- potency (cyclic AMP production), fold increase compared to wild type TSH: 200 fold
